In patent US20250312438A1 (published 2025):
Numbering of substitutions follows the chain as printed. Names and notes keep the numbering of the source. Read-outs that look alike come from different tables or passages of the source.

How the values were obtained:
[1] = target: HLA-DRA*01:01 W168R / HLA-DRB1*04:01 F31V/H33N; test: BLI
[2] = target: HLA-DRA*01:01 No mut. / HLA-DRB1*04:01 F31V/H33N; test: BLI
[3] = target: HLA-DRA*01:01 W168R / HLA-DRB1*04:01 No mut.; test: BLI
[4] = target: HLA-DRA*01:01 W168R / HLA-DRB1*04:01 F31I/H33N; test: BLI
[5] = target: HLA-DRA*01:01 No mut. / HLA-DRB1*04:01 F31I/H33N; test: BLI
[6] = target: T1, recombinant HLA-DR (DRA*01:01/DRB1*04:01) with covalently attached Influenza Hemagglutinin (HA) peptide (human;Influenza); test: BLI
[7] = target: T1, recombinant HLA-DR …; test: BLI; remark: listed apart in the source
BJAB cells = BJAB cells (human, UniProt P01903 26-254); test: flow
Chain of BJAB cells (P01903 whole entry): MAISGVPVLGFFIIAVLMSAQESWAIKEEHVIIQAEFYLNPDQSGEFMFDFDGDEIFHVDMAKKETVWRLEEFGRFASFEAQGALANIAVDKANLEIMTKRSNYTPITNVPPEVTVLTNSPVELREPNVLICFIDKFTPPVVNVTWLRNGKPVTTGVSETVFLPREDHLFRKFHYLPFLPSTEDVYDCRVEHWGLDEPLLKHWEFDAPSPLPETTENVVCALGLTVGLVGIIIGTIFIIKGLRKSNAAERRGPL

[8] = target: T1, recombinant HLA-DR …; test: BLI; remark: listed apart in the source

B1: 44H10 (antibody, V domains shown)
VH: QVQLKESGPGLVAPSQSLSITCTVSGFSLTSYGVHWVRQPPGKGLEWLGVIWAGGSINYNSALMSRLSISKDNFKSQVFLKMSSLQTDDTAMYYCARAYGDYVHYAMDYWGQGTSVTASS
VL: DIQMTQSPSSLSASLGQRVSLTCRASQEISGYLTWLQQKPDGTIKRLVYAASTLDSGVPKRFSGSRSGSDYSLTISSLESEDFADYYCLQYTNYPLTFGAGTKLELKR
B1 showed a Kd [1] of 0.2 nM, a Kd [2] of 0.4 nM and a Kd [3] of 2.8 nM. For the same binder, the Kd [4] was 0.2 nM and the Kd [5] was 0.5 nM.

B2: chimeric human IgG1 anti-HLA-DR 44H10 antibody (antibody, V domains shown)
VH: B1 VH
VL: B1 VL
In the case of B2, the Kd [6] is reported as 199 nM and the Kd [7] is reported as 1.5 nM.

B3: V17 (antibody, V domains shown)
VH: QVTLKESGPVLVKPTETLTLTCTVSGFSLTSYGVHWIRQPPGKALEWLAVIWAGGSISYSTSLMSRLTISKDTSKSQVVLTMTNMDPVDTATYYCARAYGDYVHYAMDYWGQGTLVTVSS
VL: DIQMTQSPSSLSASVGDRVTITCRASQEISGYLTWLQQKPGKAPKLLIYAASTLDSGVPSRFSGSGSGTDFTLTISSLQPEDFATYYCLQYTNYPLTFGQGTKLEIK
B3 was tested, and the EC50 (BJAB cells) was 5.02 µg/mL.

B4: humanized 44H10 variant V21 (antibody, V domains shown)
VH: B3 VH
VL: B3 VL with S60K, G66R
B4 was tested, and the Kd [6] was 221 nM and the Kd [8] was 157 nM.

B5: V19 (R66 back-mutation) (antibody, V domains shown)
VH: B3 VH
VL: B3 VL with G66R
B5 was tested, and the EC50 (BJAB cells) was 2.02 µg/mL.

B6: V14 with the V71K and F78V mutations in the VH (antibody, V domains shown)
VH: QVQLQESGPGLVKPSETLSLTCTVSGFSLTSYGVHWIRQPPGKGLEWIGVIWAGGSINYNSALMSRVTISKDTSKNQVSLKLSSVTAADTAVYYCARAYGDYVHYAMDYWGQGTLVTVSS
VL: B3 VL
In the case of B6, the Kd [8] is reported as 206 nM.

B7: V20 (K60 back-mutation) (antibody, V domains shown)
VH: B3 VH
VL: B3 VL with S60K
B7 showed an EC50 (BJAB cells) of 2.21 µg/mL.
